The text below walks through data of patent US20140221623A1 (Ablynx, published 2014).

Assay [1] addresses T1, IL6-R on U266 cells (human, UniProt P08887 20-468).
T1 sequence (looked up): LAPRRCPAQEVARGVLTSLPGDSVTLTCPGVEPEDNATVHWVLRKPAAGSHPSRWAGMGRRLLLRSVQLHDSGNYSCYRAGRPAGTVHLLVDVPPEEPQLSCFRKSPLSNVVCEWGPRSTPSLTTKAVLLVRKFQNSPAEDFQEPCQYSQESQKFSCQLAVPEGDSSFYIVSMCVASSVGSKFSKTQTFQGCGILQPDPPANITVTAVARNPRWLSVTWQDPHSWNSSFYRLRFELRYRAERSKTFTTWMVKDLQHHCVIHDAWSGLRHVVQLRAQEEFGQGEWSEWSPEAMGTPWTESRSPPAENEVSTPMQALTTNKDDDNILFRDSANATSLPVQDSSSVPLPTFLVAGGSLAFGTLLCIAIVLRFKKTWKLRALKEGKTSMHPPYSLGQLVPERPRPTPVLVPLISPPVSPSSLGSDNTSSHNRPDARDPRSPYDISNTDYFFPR
Briefly: cell-based or functional assay.

The target in assay [2] is T1, IL6-R on U266 cells. Briefly: cell-based or functional assay. The source holds these as a separate data set.
For assay [3], the target named is T2, Human soluble IL6-R (human, UniProt P08887 20-358).
T2 construct: Bought soluble receptor; biotinylated in some Alphascreen assays; also called sIL6-R; hIL-6R
T2 sequence (looked up): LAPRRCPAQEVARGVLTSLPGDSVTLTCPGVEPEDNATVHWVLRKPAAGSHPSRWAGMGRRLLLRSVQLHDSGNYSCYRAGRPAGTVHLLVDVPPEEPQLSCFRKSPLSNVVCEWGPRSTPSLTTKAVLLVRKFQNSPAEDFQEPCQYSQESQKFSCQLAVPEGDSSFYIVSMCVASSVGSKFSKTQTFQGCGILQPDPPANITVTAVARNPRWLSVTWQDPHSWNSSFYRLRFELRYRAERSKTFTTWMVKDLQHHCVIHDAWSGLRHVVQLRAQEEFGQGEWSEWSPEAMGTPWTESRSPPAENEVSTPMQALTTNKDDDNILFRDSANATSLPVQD
Briefly: SPR (Biacore 3000), IL6-R on CM5 chip. A general note: SPR reads the build-up and loss of mass on a sensor chip optically.

The target of assay [4] is T2, Human soluble IL6-R. Briefly: Alphascreen, 100 nM Nanobody; competitor Reference-Fab on beads.
The target in assay [5] is T2, Human soluble IL6-R. Briefly: SPR (Biacore 3000), IL6-R on CM5 chip. The source holds these as a separate data set.
Assay [6] addresses T1, IL6-R on U266 cells. Briefly: cell-based or functional assay. This is another data set of the same source.
The target in assay [7] is T2, Human soluble IL6-R. Briefly: SPR (Biacore), off-rate.
In assay [8] the target is T2, Human soluble IL6-R. Briefly: SPR (Biacore 3000), IL6-R on CM5 chip. This is another data set of the same source.
For assay [9], the target named is T2, Human soluble IL6-R. Briefly: SPR (Biacore 3000), IL6-R on CM5 chip; row without label, read as kd.

“And” between values parts separate entries of the source, which are not always exact repeats. Equal values may be shown once. Read-outs that look alike come from different tables or passages of the source.

B1: IL6R04 (VHH)
VHH: EVQLVESGGGLVQAGGSLRLSCAASGFTFDDYDIGWFRQAPGKEREGVSGISSSDGNTYYADSVKGRFTISSDNAKNTVYLQMNSLKPEDTAVYYCAAEPPDSSWYLDGSPEFFKYWGQGTQVTVSS
notes: also called PMP32C9; PMP 32 C9
Turning to B1, the “IC50, XG-1 proliferation” value in [1] is 0.089 nM. In addition, in assay [2], the “IC50, TF-1 proliferation” value was 0.545 nM. Also, the Kd was 0.2 nM in assay [3] and 0.26 nM in assay [5]. The koff in [3] is 0.000112 s⁻¹; in [5], 9.42e-05 s⁻¹ and 0.00015 s⁻¹; in assay [7], 0.00015 s⁻¹. Besides, the values for the kon in assay [3] and in assay [5] were 536000 M⁻¹ s⁻¹ and 365000 M⁻¹ s⁻¹, respectively. For the same molecule, the “% binding retained in competition with Reference-Fab” value in assay [4] was determined as 50%. For the same molecule, in [6], the “IC50, XG-1 proliferation with 1 mg/mL human serum albumin” value was 0.099 nM.

B2: IL6R88 (VHH)
VHH: EVQLVESGGGLVQPGGSLRLSCAASGFTFDDYGMSWVRQAPGKGTEWVSAISWNGNNTYYTESMKGRFTISRDNAKNTLYLQMNSLRPEDTAVYYCVKGSTAIVGVPPTYPDEYDYWGQGTLVTVSS
notes: Humanized variant of IL6R13
In [8], B2 gave a Kd of 0.9 nM, a dissociation rate constant (koff) of 0.00031 s⁻¹ and an on-rate constant (kon) of 230000 M⁻¹ s⁻¹. This molecule also yielded a koff in assay [9] of 0.000213 s⁻¹.

Usually Kd stands for the constant that tells how readily two partners part at equilibrium. Read a high Kd as a looser complex. One may read the koff as the rate constant with which the complex falls apart. A high value points to a short-lived complex. As a reminder, the kon is a measure of how fast the partners come together. Low readings indicate slow association, high ones fast association.
